Assays:
[1] = test system: Hcy, Cth, Cys; assay: Plasma metabolites in surviving treated KO mice (trough and peak); assay type: in vivo; settings: 7.5 mg/kg 3x weekly
Description: (§1) Plasma metabolites homocysteine, cystathionine and cysteine were determined by stable-isotope-dilution liquid chromatography mass spectrometry as previously described in (Allen et al., 1993, Metabolism, 42: 1448-1460). Measurements of total non-protein bound homocysteine and other aminothiols as well as of amino acids in tissue were performed as described in (Maclean et al., 2010b. Mol. Genet. Metab. 101, 153-162). Metabolites were determined by stable-isotope-dilution liquid chromatography mass spectrometry.
Metabolite levels in surviving KO mice at age of about 4-5 weeks were measured after a weekend washout (trough) and 24 hours after the last injection (peak) using the experimental procedure in Example 1.

[2] = test system: KO mice; assay: DEXA bone mineralization and body composition in KO mice; assay type: in vivo, mouse; settings: 7.5 mg/kg SC 3x/week from day 2 to about 5 months
Description: A PIXImusII DEXA scanner (GE Lunar Medical Systems) specifically designed for scanning small animals such as mice was used for DEXA analysis. This machine enabled quick and efficient determination of the body composition (lean, fat mass, and bone density) of a mouse before terminal tissue extraction procedures. Mice were fasted for 4 hours prior to the DEXA measurement to remove food from the gastro-intestinal tract. Mice were then anesthetized using IP bolus injection of 60 mg/kg ketamine and 15 mg/kg xylazine and placed on a tray in the DEXA machine. After the measurement was done (3˜5 minutes), the mice were removed from the DEXA machine and used in terminal procedures, such as tissue extractions.
The bone mineral density (BMD) and bone mineral content (BMC) were analyzed by DEXA for three groups of mice: +/− healthy heterozygous controls (n=4M+6F), affected KO controls (n=5M+13F), and 20NHS PEG-htCBS C15S (C15S/ME-200GS)-treated KO mice (n=6M+15F). The 20NHS PEG-htCBS C15S-treated mice were administered 7.5 mg/kg subcutaneously (SC) three times a week from day 2 to about 5 months. All −/− KO mice were treated for the initial 5 W (from 2 to 35 days of age) to prevent neonatal lethality.

[3] = test system: Hcy, Cth, Cys; assay: Plasma metabolites in I278T mice of the eye study; assay type: in vivo; settings: 7.5 mg/kg SC 3x/week
Description: The changes in metabolite levels in plasma were measured in I278T (+/−) healthy heterozygous control mice, untreated −/− affected homozygous control mice, and 20NHS PEG-htCBS C15S-treated −/− homozygous I278T mice. The 20NHS PEG-htCBS C15S (C15S/ME-200GS)-treated mice were administered 7.5 mg/kg subcutaneously (SC) 3 times per week from the age of 2 days up to the age of 4 months. Levels measured beginning at 72 hours after the injection as mice were on the treatment from 2 days of age.

[4] = test system: homocysteine, cystathionine, cysteine, lanthionine, and homolanthionine; assay: Pharmacodynamics (plasma sulfur amino acid metabolites) in monkeys; assay type: in vivo, cynomolgus monkeys (Macaca fascicularis); set-up: Cystathionine plasma level / Lanthionine plasma level / Homolanthionine plasma level: unit not given here; settings: for Homolanthionine plasma level / Lanthionine plasma level / Cystathionine plasma level: mean ± SEM
Description: as §1

[5] = Radiometric CBS activity assay of monkey plasma samples; assay type: in vivo, cynomolgus monkey
Text: Tables 12-14 below show the comparison of C15S/ME-200GS specific activity determined by LC/MS/MS using D,L-homocysteine M+4 as a substrate and by radiometric assay using L-[…] as a substrate. The enzyme's specific activity is presented in mU/μl. The “n.d.” stands for “not determined”.

For “20NHS PEG-htCBS C15S: htCBS C15S PEGylated with ME-200GS PEG (20 kDa linear NHS ester-activated PEG)”, the “plasma Cys” value ([1]; 24 hours post-dose) was 176 ± 6 µM, the “plasma Hcy” value ([1]; 24 hours post-dose) was 96 ± 8 µM and the “plasma Cys” value ([1]; 72 hours post-dose) was 106 ± 6 µM. For the same substance, the “plasma Hcy” value ([1]; 72 hours post-dose) was 179 ± 10 µM, the “BMD vs control groups” value [2] was “significantly higher BMD than both control groups” and the “osteoporosis and body composition (DEXA)” value [2] was “completely prevented profound osteoporosis and improved body composition”. For the same substance, the “plasma Cth” value ([3]; throughout the study) was “around 50 μM”, the “plasma Cys” value ([3]; throughout the study) was “around 230 μM” and the “plasma Hcy” value ([3]; decreased from 230 μM) was “about 70 μM”. The Homolanthionine plasma level ([4]; 1 mg/kg SC every 72 h, 176 h) was 64 ± 7, the Lanthionine plasma level ([4]; 1 mg/kg SC every 72 h, 176 h) was 46 ± 9 and the Cystathionine plasma level ([4]; 1 mg/kg SC every 72 h, 176 h after first injection) was 4010 ± 236. The Cystathionine plasma level ([4]; 1 mg/kg SC every 72 h, 392 h) was 4272 ± 333, the Homolanthionine plasma level ([4]; 1 mg/kg SC every 72 h, 392 h) was 72 ± 5 and the Lanthionine plasma level ([4]; 1 mg/kg SC every 72 h, 392 h) was 69 ± 7. The Cystathionine plasma level ([4]; 3 mg/kg SC every 72 h, 176 h) was 5629 ± 284, the Homolanthionine plasma level ([4]; 3 mg/kg SC every 72 h, 176 h) was 64 ± 4 and the Lanthionine plasma level ([4]; 3 mg/kg SC every 72 h, 176 h) was 103 ± 7. The Cystathionine plasma level ([4]; 3 mg/kg SC every 72 h, 392 h) was 5893 ± 390, the Homolanthionine plasma level ([4]; 3 mg/kg SC every 72 h, 392 h) was 60 ± 10 and the Lanthionine plasma level ([4]; 3 mg/kg SC every 72 h, 392 h) was 109 ± 9. For the same substance, the Cystathionine plasma level ([4]; 10 mg/kg SC every 72 h, 176 h) was 7098 ± 12, the Homolanthionine plasma level ([4]; 10 mg/kg SC every 72 h, 176 h) was 50 ± 3 and the Lanthionine plasma level ([4]; 10 mg/kg SC every 72 h, 176 h) was 281 ± 43. It also gave a Cystathionine plasma level ([4]; 10 mg/kg SC every 72 h, 392 h) of 9318 ± 288, a Homolanthionine plasma level ([4]; 10 mg/kg SC every 72 h, 392 h) of 53 ± 4 and a Lanthionine plasma level ([4]; 10 mg/kg SC every 72 h, 392 h) of 353 ± 38. For the same substance, the “plasma Cth” value ([4]; 8 hours after IV, 8 and 48 hours after SC administration) was “significant spikes”, the “plasma levels of Hcy and Cys” value ([4]; single IV or SC dose, healthy wild-type monkeys) was “No significant changes” and the “specific activity in plasma, Radiometric assay” value (“specific activity in plasma” below) ([5]; single IV 2 mg/kg, 0.083 h) was 95.741 mU/μl. The “specific activity in plasma” value ([5]; single IV 2 mg/kg, 0.167 h) was 90.049 mU/μl, the “specific activity in plasma” value ([5]; single IV 2 mg/kg, 0.25 h) was 88.891 mU/μl and the “specific activity in plasma” value ([5]; single IV 2 mg/kg, 0.5 h) was 85.342 mU/μl. For the same substance, the “specific activity in plasma” value ([5]; single IV 2 mg/kg, 1 h) was 80.992 mU/μl, the “specific activity in plasma” value ([5]; single IV 2 mg/kg, 2 h) was 78.984 mU/μl and the “specific activity in plasma” value ([5]; single IV 2 mg/kg, 4 h) was 77.809 mU/μl. The “specific activity in plasma” value ([5]; single IV 2 mg/kg, 8 h) was 70.357 mU/μl, the “specific activity in plasma” value ([5]; single IV 2 mg/kg, 24 h) was 55.865 mU/μl and the “specific activity in plasma” value ([5]; single IV 2 mg/kg, 72 h) was 31.601 mU/μl. The “specific activity in plasma” value ([5]; single IV 2 mg/kg, 120 h) was 18.908 mU/μl, the “specific activity in plasma” value ([5]; single IV 2 mg/kg, 192 h) was 9.182 mU/μl and the “specific activity in plasma” value ([5]; single SC 2 mg/kg, 1 h) was 2.842 mU/μl. The “specific activity in plasma” value ([5]; single SC 2 mg/kg, 2 h) was 5.801 mU/μl, the “specific activity in plasma” value ([5]; single SC 2 mg/kg, 4 h) was 11.207 mU/μl and the “specific activity in plasma” value ([5]; single SC 2 mg/kg, 8 h) was 22.164 mU/μl. The “specific activity in plasma” value ([5]; single SC 2 mg/kg, 24 h) was 40.293 mU/μl, the “specific activity in plasma” value ([5]; single SC 2 mg/kg, 48 h) was 36.658 mU/μl and the “specific activity in plasma” value ([5]; single SC 2 mg/kg, 72 h) was 30.670 mU/μl. The “specific activity in plasma” value ([5]; single SC 2 mg/kg, 96 h) was 23.536 mU/μl, the “specific activity in plasma” value ([5]; single SC 2 mg/kg, 120 h) was 18.608 mU/μl and the “specific activity in plasma” value ([5]; single SC 2 mg/kg, 192 h) was 9.496 mU/μl. For the same substance, the “specific activity in plasma” value ([5]; single SC 2 mg/kg, 240 h) was 5.963 mU/μl, the “specific activity in plasma” value ([5]; single SC 2 mg/kg, 336 h) was 2.441 mU/μl and the “specific activity in plasma” value ([5]; single SC 6 mg/kg, 1 h) was 3.739 mU/μl. The “specific activity in plasma” value ([5]; single SC 6 mg/kg, 2 h) was 9.180 mU/μl, the “specific activity in plasma” value ([5]; single SC 6 mg/kg, 4 h) was 22.263 mU/μl and the “specific activity in plasma” value ([5]; single SC 6 mg/kg, 8 h) was 50.194 mU/μl. The “specific activity in plasma” value ([5]; single SC 6 mg/kg, 24 h) was 111.081 mU/μl, the “specific activity in plasma” value ([5]; single SC 6 mg/kg, 48 h) was 109.292 mU/μl and the “specific activity in plasma” value ([5]; single SC 6 mg/kg, 72 h) was 95.722 mU/μl. The “specific activity in plasma” value ([5]; single SC 6 mg/kg, 96 h) was 73.072 mU/μl, the “specific activity in plasma” value ([5]; single SC 6 mg/kg, 120 h) was 56.427 mU/μl and the “specific activity in plasma” value ([5]; single SC 6 mg/kg, 192 h) was 31.513 mU/μl. For the same substance, the “specific activity in plasma” value ([5]; single SC 6 mg/kg, 240 h) was 19.203 mU/μl and the “specific activity in plasma” value ([5]; single SC 6 mg/kg, 336 h) was 5.807 mU/μl.

Reference: patent US12194082B2, “Compositions and methods for treatment of homocystinuria” (THE REGENTS OF THE UNIVERSITY OF COLORADO, priority 2016, dated 2025)
